Here are results for eight molecules from US5460942A, “The catalytic moiety of the glucose-6-phosphatase system: the gene and protein and related mutations” (The United States of America as represented by the …, priority 1993, dated 1995).

Data set [1] addresses T1, mouse liver microsomal G-6-Pase (Mus musculus, UniProt P35576).
T1 construct: hepatic G-6-Pase activities of microsomes isolated from adult mouse liver; from tissue; host or cells: liver microsomes of fasted Swiss Webster mice
T1 sequence (P35576 1-357): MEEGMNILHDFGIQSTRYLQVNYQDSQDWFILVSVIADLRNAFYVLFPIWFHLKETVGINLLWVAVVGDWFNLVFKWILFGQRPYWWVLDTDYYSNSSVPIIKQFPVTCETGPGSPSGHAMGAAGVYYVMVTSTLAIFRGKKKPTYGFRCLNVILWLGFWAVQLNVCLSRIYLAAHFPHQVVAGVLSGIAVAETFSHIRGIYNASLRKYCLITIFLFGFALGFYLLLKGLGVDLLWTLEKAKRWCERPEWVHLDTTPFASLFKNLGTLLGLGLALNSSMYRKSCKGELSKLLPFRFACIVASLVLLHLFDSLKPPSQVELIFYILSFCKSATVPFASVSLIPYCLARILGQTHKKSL
The data set can be described thus: Phosphohydrolase assay, adult mouse liver microsomes. Particulars: competitive inhibitor of glucose-6-P phosphohydrolysis, read-out: Vanadate, Ki. Format: biochemical. (Liver microsomes are vesicles of endoplasmic reticulum, rich in cytochrome P450 enzymes.)

A further data set deals with human G-6-Pase (Homo sapiens, UniProt P35575, A192T). Conditions: read-out: Vanadate K1; phG-6-Pase-1-transfected COS-1 microsomes. How it is done: (§1) The functional identity of the human G-6-Pase cDNA was studied in a manner similiar to that described above with the murine G-6-Pase. Detailed biochemical studies were performed on microsomal preparations isolated from COS-1 cells transiently transfected with the phG-6-Pase-1 cDNA and compared with activities in human liver microsomes.

In data set [2] the target is human liver microsomal G-6-Pase (Homo sapiens, UniProt P35575). Conditions: read-out: Vanadate K1; human liver microsomes. On the procedure: as §1
The target in a further data set is T2, murine G-6-Pase (Mus musculus, UniProt P35576).
T2 sequence (P35576 1-357): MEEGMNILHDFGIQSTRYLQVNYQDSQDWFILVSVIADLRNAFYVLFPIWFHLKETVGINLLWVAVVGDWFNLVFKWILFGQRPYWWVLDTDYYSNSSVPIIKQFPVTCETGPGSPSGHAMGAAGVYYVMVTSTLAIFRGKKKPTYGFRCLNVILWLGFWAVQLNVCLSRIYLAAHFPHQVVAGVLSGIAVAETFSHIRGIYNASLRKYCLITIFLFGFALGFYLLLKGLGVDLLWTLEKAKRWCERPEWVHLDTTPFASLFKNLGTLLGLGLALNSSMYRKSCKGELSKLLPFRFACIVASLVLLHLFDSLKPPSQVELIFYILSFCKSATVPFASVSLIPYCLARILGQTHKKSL
Particulars: read-out: Ki values for vanadate observed in the present study; both microsomal preparations (transfected COS-1 cells and adult mouse livers).

Data set [3] has as its target glucose-6-P phosphohydrolase activity. Particulars: read-out: Ki for vanadate reported; permeable hepatocytes or rat microsomes; cited from earlier work.
Substrate in data set [4]: O=P(O)(O)OC[C@H]1OC(O)[C@@H](O)[C@@H](O)[C@@H]1O
The data set can be described thus: cells, lysate or membranes named. Particulars: other: disrupted adult mouse liver microsomes; mean ± SEM; pH 6.5; 30.0 °C.

Substrate in data set [5]: O=P(O)(O)OC[C@H]1OC(O)[C@H](O)[C@@H](O)[C@@H]1O
Kind of data set: cells, lysate or membranes named. Particulars: pH 6.5, 30.0 °C.

Data set [6] in a line: Thermal stability of glucose-6-P phosphohydrolase activity (37° C., 10 min, pH 5.0). Format: biochemical. Conditions: for Thermal Stability (enzyme activities remaining after heat treatment): deoxycholate (0.2%) disrupted microsomes. On the procedure:
Hepatic G-6-Pase is characterized by its high thermal lability; G-6-Pase is completely inactivated by incubating the microsomal preparation (or homogenate) at pH 5.0 for 10 min at 37° C., Hers, H. G., in Advances in Metabolic Disorders Vol 1 (eds Levine, R., Luft, L.), 1-44 (Academic Press, London, 1964).

Data set [7] in a line: Carbamyl-P:glucose phosphotransferase activity in disrupted microsomes. Format: biochemical, mouse. Conditions: deoxycholate-disrupted microsomes, linear region of enzyme concentration curves. On the procedure:
Phosphotransferase activity was determined by a modification of the method described by Jorgenson and Nordlie, supra. Reaction mixture (10 μl) contained 100 mM HEPES buffer, pH 6.5, 50 mM glucose, […] D-glucose (10^5 cpm/reaction, 256 mCi/mmol, ICN Biochemicals, Irvine, Calif.), 4 mM carbamyl-P, and deoxycholate-disrupted microsomal proteins. […] The samples were then centrifuged at 10,000×g for 5 min, and 2 to 4 μl of supernatant applied to a PEI-cellulose plate (J. T. Baker, Inc., Phillipsburg, N.J.). Glucose-6-P was separated from glucose by thin-layer chromatography developed in water. Spots were quantitated on an AMBIS Radioanalytic Imaging System (San Diego, Calif.).

Data set [8] is described as follows: pH profile of glucose-6-P phosphohydrolase activity in disrupted microsomes. It counts as biochemical, mouse.
Data set [9] in a line: Phosphohydrolase activity of site-directed human G-6-Pase mutants in transfected cells. Particulars: arginine to cysteine substitution; pSVL constructs in transfected cells. It counts as biochemical. The source says: The two outside PCR primers were 01 (5'-[…]-3' (Seq. ID No.:29), nucleotides 77 to 96) and 02 (5'-[…]-3' (Seq. ID No.:30), nucleotides 1153 to 1130). […] 01 and 02 contain an additional XhoI or XbaI linker, respectively. […] The amplified fragments were digested with XhoI and XbaI and ligated into a pSVL vector. All constructs were confirmed by DNA sequencing.

Regarding `[O]=[V]([OH])([OH])[OH]` [Vanadate], the Ki was 330 µM in data set [1]; 1680 µM at human G-6-Pase; 1610 µM in [2]; 330 to 340 µM on murine G-6-Pase; 1.5 µM in data set [3].

B1: mouse liver microsomal G-6-Pase (Mus musculus) (protein)
chain: MEEGMNILHDFGIQSTRYLQVNYQDSQDWFILVSVIADLRNAFYVLFPIWFHLKETVGINLLWVAVVGDWFNLVFKWILFGQRPYWWVLDTDYYSNSSVPIIKQFPVTCETGPGSPSGHAMGAAGVYYVMVTSTLAIFRGKKKPTYGFRCLNVILWLGFWAVQLNVCLSRIYLAAHFPHQVVAGVLSGIAVAETFSHIRGIYNASLRKYCLITIFLFGFALGFYLLLKGLGVDLLWTLEKAKRWCERPEWVHLDTTPFASLFKNLGTLLGLGLALNSSMYRKSCKGELSKLLPFRFACIVASLVLLHLFDSLKPPSQVELIFYILSFCKSATVPFASVSLIPYCLARILGQTHKKSL
For the molecule B1, the Km was found to be 670 µM in [4]; 680 µM in [5] (other: disrupted adult mouse liver microsomes, mean ± SEM); 3300 µM in data set [5] (other: intact adult mouse liver microsomes).

B2: pSVLmG-6-Pase-Transfacted COS: recombinant murine G-6-Pase in microsomes of COS-1 cells transfected with pSVLmG-6-Pase (protein, UniProt P35576 1-357, looked up)
Glucose-6-phosphatase …: MEEGMNILHDFGIQSTRYLQVNYQDSQDWFILVSVIADLRNAFYVLFPIWFHLKETVGINLLWVAVVGDWFNLVFKWILFGQRPYWWVLDTDYYSNSSVPIIKQFPVTCETGPGSPSGHAMGAAGVYYVMVTSTLAIFRGKKKPTYGFRCLNVILWLGFWAVQLNVCLSRIYLAAHFPHQVVAGVLSGIAVAETFSHIRGIYNASLRKYCLITIFLFGFALGFYLLLKGLGVDLLWTLEKAKRWCERPEWVHLDTTPFASLFKNLGTLLGLGLALNSSMYRKSCKGELSKLLPFRFACIVASLVLLHLFDSLKPPSQVELIFYILSFCKSATVPFASVSLIPYCLARILGQTHKKSL
modifications: in COS-1 microsomes
notes: recombinant murine G-6-Pase in microsomes of COS-1 cells transfected with pSVLmG-6-Pase
B2: the “Thermal Stability (enzyme activities remaining after heat treatment)” value in [6] (37° C. for 10 min at pH 5.0, murine study) came out at 1.6%. Also, in data set [6] (murine study), the “glucose-6-P phosphohydrolase activity after incubation at 37° C. for 10 min at pH 5.0 (in words)” value was “abolished”. The “Phosphotransferase, Carbamyl-P: Glucose” value in data set [7] is given as 0.22 μmol/min/mg of microsomal prot. In addition, the “pH optimum of glucose-6-P phosphohydrolase activity” value in data set [8] was around 6.5.

B3: human G-6-Pase (Homo sapiens; A192T) (protein)
chain: MEEGMNVLHDFGIQSTHYLQVNYQDSQDWFILVSVIADLRNAFYVLFPIWFHLQEAVGIKLLWVAVIGDWLNLVFKWILFGQRPYWWVLDTDYYSNTSVPLIKQFPVTCETGPGSPSGHAMGTAGVYYVMVTSTLSIFQGKIKPTYRFRCLNVILWLGFWAVQLNVCLSRIYLAAHFPHQVVAGVLSGIAVTETFSHIHSIYNASLKKYFLITFFLFSFAIGFYLLLKGLGVDLLWTLEKAQRWCEQPEWVHIDTTPFASLLKNLGTLFGLGLALNSSMYRESCKGKLSKWLPFRLSSIVASLVLLHVFDSLKPPSQVELVFYVLSFCKSAVVPLASVSVIPYCLAQVLGQPHKKSL
Consider B3, for which the Km in data set [5] (other: phG-6-Pase-1-transfected COS-1 microsomes) worked out at 1770 ± 130 µM.

B4: phG-6-Pase-1-COS: recombinant human G-6-Pase in microsomes of COS-1 cells transiently transfected with phG-6-Pase-1 cDNA (protein, UniProt P35575 1-357, looked up)
Glucose-6-phosphatase …: MEEGMNVLHDFGIQSTHYLQVNYQDSQDWFILVSVIADLRNAFYVLFPIWFHLQEAVGIKLLWVAVIGDWLNLVFKWILFGQRPYWWVLDTDYYSNTSVPLIKQFPVTCETGPGSPSGHAMGTAGVYYVMVTSTLSIFQGKIKPTYRFRCLNVILWLGFWAVQLNVCLSRIYLAAHFPHQVVAGVLSGIAVAETFSHIHSIYNASLKKYFLITFFLFSFAIGFYLLLKGLGVDLLWTLEKAQRWCEQPEWVHIDTTPFASLLKNLGTLFGLGLALNSSMYRESCKGKLSKWLPFRLSSIVASLVLLHVFDSLKPPSQVELVFYVLSFCKSAVVPLASVSVIPYCLAQVLGQPHKKSL
modifications: in COS-1 microsomes
notes: recombinant human G-6-Pase in microsomes of COS-1 cells transiently transfected with phG-6-Pase-1 cDNA
Turning to B4, the “Thermal Stability (enzyme activities remaining after heat treatment)” value in [6] (10 min at 37° C., 50 mM cacodylate buffer pH 5.0, human study) came out at 6.0%. For the same molecule, in data set [6] (human study), the “glucose-6-P phosphohydrolase activity after incubation at 37° C. for 10 min at pH 5.0 (in words)” value is “virtually abolished”.

B5: human liver microsomal G-6-Pase (Homo sapiens) (protein)
chain: MEEGMNVLHDFGIQSTHYLQVNYQDSQDWFILVSVIADLRNAFYVLFPIWFHLQEAVGIKLLWVAVIGDWLNLVFKWILFGQRPYWWVLDTDYYSNTSVPLIKQFPVTCETGPGSPSGHAMGTAGVYYVMVTSTLSIFQGKIKPTYRFRCLNVILWLGFWAVQLNVCLSRIYLAAHFPHQVVAGVLSGIAVAETFSHIHSIYNASLKKYFLITFFLFSFAIGFYLLLKGLGVDLLWTLEKAQRWCEQPEWVHIDTTPFASLLKNLGTLFGLGLALNSSMYRESCKGKLSKWLPFRLSSIVASLVLLHVFDSLKPPSQVELVFYVLSFCKSAVVPLASVSVIPYCLAQVLGQPHKKSL
Turning to B5, the Km in data set [5] (other: human liver microsomes) is 1710 ± 110 µM.

B6: G-6-Pase-Cys^295: human G-6-Pase mutant, arginine 295 changed to cysteine (protein, UniProt P35575 1-357, looked up, variant R295C)
Glucose-6-phosphatase …: MEEGMNVLHDFGIQSTHYLQVNYQDSQDWFILVSVIADLRNAFYVLFPIWFHLQEAVGIKLLWVAVIGDWLNLVFKWILFGQRPYWWVLDTDYYSNTSVPLIKQFPVTCETGPGSPSGHAMGTAGVYYVMVTSTLSIFQGKIKPTYRFRCLNVILWLGFWAVQLNVCLSRIYLAAHFPHQVVAGVLSGIAVAETFSHIHSIYNASLKKYFLITFFLFSFAIGFYLLLKGLGVDLLWTLEKAQRWCEQPEWVHIDTTPFASLLKNLGTLFGLGLALNSSMYRESCKGKLSKWLPFCLSSIVASLVLLHVFDSLKPPSQVELVFYVLSFCKSAVVPLASVSVIPYCLAQVLGQPHKKSL
B6: the “G-6-Pase phosphohydrolase activity of mutant” value in [9] is “abolished”.

B7: G-6-Pase-Cys^83: human G-6-Pase mutant, arginine 83 changed to cysteine (protein, UniProt P35575 1-357, looked up, variant R83C)
Glucose-6-phosphatase …: MEEGMNVLHDFGIQSTHYLQVNYQDSQDWFILVSVIADLRNAFYVLFPIWFHLQEAVGIKLLWVAVIGDWLNLVFKWILFGQCPYWWVLDTDYYSNTSVPLIKQFPVTCETGPGSPSGHAMGTAGVYYVMVTSTLSIFQGKIKPTYRFRCLNVILWLGFWAVQLNVCLSRIYLAAHFPHQVVAGVLSGIAVAETFSHIHSIYNASLKKYFLITFFLFSFAIGFYLLLKGLGVDLLWTLEKAQRWCEQPEWVHIDTTPFASLLKNLGTLFGLGLALNSSMYRESCKGKLSKWLPFRLSSIVASLVLLHVFDSLKPPSQVELVFYVLSFCKSAVVPLASVSVIPYCLAQVLGQPHKKSL
B7: in [9], the “G-6-Pase phosphohydrolase activity of mutant” value is “abolished”.

The Km is the substrate concentration at which the rate is half of its maximum.
